The target of data set [1] is dabsyl-…-LucY (TMEM27 FRET peptide).
The subject of data set [2] is dabsyl-QTLEFLKIPS-LucY (TMEM27 FRET peptide).
Data set [3] concerns T1, MR121 peptide C QTLEFLKI W.
T1 sequence: QTLEFLKI

Data set [4] relates to MR121 peptide C QTLEF W.
Data set [5] has as its system T2, MR121 peptide C QTLEFLKIP W.
T2 sequence: QTLEFLKIP

For data set [6], the system named is T3, APP SW FRET peptide SEVNLDAEFR
T3 sequence: SEVNLDAEFR

Data set [7] concerns T4, TMEM 27 A FRET peptide RINNAFFLND
T4 sequence: RINNAFFLND

Data set [8] relates to T5, MR121 peptide C QTLEFLKIPS W.
T5 sequence: QTLEFLKIPS

For data set [9], the system named is MR121 peptide C QTLEFLK W.
In data set [10] the test system is MR121 peptide C LEFLKI W.
Data set [11] has as its system dabsyl-NSLEFLGIQP-lucifer yellow (ACE2 FRET peptide).
Data set [12] deals with MR121 peptide C QTLEFL W.
The subject of data set [13] is MR121 peptide C TLEFLKI W.
For data set [14], the system named is T6, APP WT FRET peptide SEVKMDAEFR
T6 sequence: SEVKMDAEFR

Data set [15] concerns T7, MR121 peptide C QELEFLKI W.
T7 sequence: QELEFLKI

In data set [16] the test system is T8, Amylin FRET peptide GSNTYGKRNA
T8 sequence: GSNTYGKRNA

B1: BACE1 (protein)
chain: TQHGIRLPLRSGLGGAPLGLRLPRETDEEPEEPGRRGSFVEMVDNLRGKSGQGYYVEMTVGSPPQTLNILVDTGSSNFAVGAAPHPFLHRYYQRQLSSTYRDLRKGVYVPYTQGKWEGELGTDLVSIPHGPNVTVRANIAAITESDKFFINGSNWEGILGLAYAEIARPDDSLEPFFDSLVKQTHVPNLFSLQLCGAGFPLNQSEVLASVGGSMIIGGIDHSLYTGSLWYTPIRREWYYEVIIVRVEINGQDLKMDCKEYNYDKSIVDSGTTNLRLPKKVFEAAVKSIKAASSTEKFPDGFWLGEQLVCWQAGTTPWNIFPVISLYLMGEVTNQSFRITILPQQYLRPVEDVATSQDDCYKFAISQSSTGTVMGAVIMEGFYVVFDRARKRIGFAVSACHVHDEFRTAAVEGPFVTLDMEDCGYNIPQTDESTLMTIAY
For B1, the “FRET peptide cleavage activity” value in data set [1] is given as “BACE1 had insignificant activity against this peptide”.

B2: BACE2 enzyme ectodomain (enzyme)
chain: AAPELAPAPFTLPLRVAAATNRVVAPTPGPGTPAERHADGLALALEPALASPAGAANFLAMVDNLQGDSGRGYYLEMLIGTPPQKLQILVDTGSSNFAVAGTPHSYIDTYFDTERSSTYRSKGFDVTVKYTQGSWTGFVGEDLVTIPKGFNTSFLVNIATIFESENFFLPGIKWNGILGLAYATLAKPSSSLETFFDSLVTQANIPNVFSMQMCGAGLPVAGSGTNGGSLVLGGIEPSLYKGDIWYTPIKEEWYYQIEILKLEIGGQSLNLDCREYNADKAIVDSGTTLLRLPQKVFDAVVEAVARASLIPEFSDGFWTGSQLACWTNSETPWSYFPKISIYLRDENSSRSFRITILPQLYIQPMMGAGLNYECYRFGISPSTNALVIGATVMEGFYVIFDRAQKRVGFAASPCAEIAGAAVSEISGPFSTEDVASNCVPAQSLSE
modifications: N-terminal Met
For the protein B2, the “FRET peptide cleavage activity” value in data set [2] is “BACE2 had a high activity against this sequence”. The Relative activity in [3] was determined as 96; in data set [4], 21; in data set [5] it was 75; in data set [8] it was 91; in data set [9], 62; in data set [10], 24. Further, the values for the Relative activity in [12], in data set [13] and in [15] were 32, 28 and 100, respectively. The “FRET peptide cleavage efficiency” value is “cleaved less efficiently” in data set [6]; “cleaved less efficiently” in data set [7]; “cleaved by BACE2 with an efficiency greater than that of the TMEM27 substrate” in [11]; “cleaved less efficiently” in data set [14]; “cleaved less efficiently” in data set [16].

Source of the values: US20110229922.
